Laboratory results reported in US20120107932A1, “PRRS-VIRUS RECEPTOR AND ITS INHIBITOR” (priority 2009, published 2012).
Values belong to the substance of their own block, whether it stands above or below them.

Columns and labels:
[1] = biological target: NMHC II-A artificial polypeptide (Seq ID No: 3); experiment: indirect ELISA, antigen coated 200 ng/well, serum dilution 10^-4; control of the anti-polypeptide (Seq ID No: 3) group
[2] = biological target: NMHC II-A artificial polypeptide (Seq ID No: 2); experiment: indirect ELISA, antigen coated 200 ng/well, serum dilution 10^-5; control of the anti-polypeptide (Seq ID No: 2) group
[3] = biological target: non-muscle myosin heavy chain II-A (NMHC II-A) protein; experiment: as above
[4] = biological target: NMHC II-A artificial polypeptide (Seq ID No: 3); experiment: indirect ELISA, antigen coated 200 ng/well, serum dilution 10^-3; control of the anti-polypeptide (Seq ID No: 3) group
[5] = biological target: non-muscle myosin heavy chain II-A (NMHC II-A) protein; experiment: as above
[6] = biological target: NMHC II-A artificial polypeptide (Seq ID No: 2); experiment: indirect ELISA, antigen coated 200 ng/well, serum dilution 10^-4; control of the anti-polypeptide (Seq ID No: 2) group
[7] = biological target: non-muscle myosin heavy chain II-A (NMHC II-A) protein; experiment: as above
[8] = biological target: NMHC II-A artificial polypeptide (Seq ID No: 2); experiment: indirect ELISA, antigen coated 200 ng/well, serum dilution 10^-2; control of the anti-polypeptide (Seq ID No: 2) group
[9] = biological target: non-muscle myosin heavy chain II-A (NMHC II-A) protein; experiment: as above
[10] = biological target: NMHC II-A artificial polypeptide (Seq ID No: 4); experiment: indirect ELISA, antigen coated 200 ng/well, serum dilution 10^-4; control of the anti-polypeptide (Seq ID No: 4) group
[11] = biological target: non-muscle myosin heavy chain II-A (NMHC II-A) protein; experiment: as above
[12] = biological target: NMHC II-A artificial polypeptide (Seq ID No: 2); experiment: indirect ELISA, antigen coated 200 ng/well, serum dilution 10^-3; control of the anti-polypeptide (Seq ID No: 2) group
[13] = biological target: non-muscle myosin heavy chain II-A (NMHC II-A) protein; experiment: as above
[14] = biological target: NMHC II-A artificial polypeptide (Seq ID No: 3); experiment: indirect ELISA, antigen coated 200 ng/well, serum dilution 10^-5; control of the anti-polypeptide (Seq ID No: 3) group
[15] = biological target: non-muscle myosin heavy chain II-A (NMHC II-A) protein; experiment: as above
[16] = biological target: NMHC II-A artificial polypeptide (Seq ID No: 3); experiment: indirect ELISA, antigen coated 200 ng/well, serum dilution 10^-2; control of the anti-polypeptide (Seq ID No: 3) group
[17] = biological target: non-muscle myosin heavy chain II-A (NMHC II-A) protein; experiment: as above
[18] = biological target: NMHC II-A artificial polypeptide (Seq ID No: 4); experiment: indirect ELISA, antigen coated 200 ng/well, serum dilution 10^-2; control of the anti-polypeptide (Seq ID No: 4) group
[19] = biological target: non-muscle myosin heavy chain II-A (NMHC II-A) protein; experiment: as above
[20] = biological target: NMHC II-A artificial polypeptide (Seq ID No: 4); experiment: indirect ELISA, antigen coated 200 ng/well, serum dilution 10^-3; control of the anti-polypeptide (Seq ID No: 4) group
[21] = biological target: non-muscle myosin heavy chain II-A (NMHC II-A) protein; experiment: as above
[22] = biological target: NMHC II-A artificial polypeptide (Seq ID No: 4); experiment: indirect ELISA, antigen coated 200 ng/well, serum dilution 10^-5; control of the anti-polypeptide (Seq ID No: 4) group
[23] = biological target: non-muscle myosin heavy chain II-A (NMHC II-A) protein; experiment: as above
PRRS virus (PRRSV) = experiment: cell-based or functional assay

OD value (450 nm) [1]: 0.09 OD
OD value (450 nm) [2]: 0.07 OD
OD value (450 nm) [3]: 0.08 OD
OD value (450 nm) [4]: 0.13 OD
OD value (450 nm) [5]: 0.11 OD
OD value (450 nm) [6]: 0.08 OD
OD value (450 nm) [7]: 0.1 OD
OD value (450 nm) [8]: 0.12 OD
OD value (450 nm) [9]: 0.13 OD
OD value (450 nm) [10]: 0.1 OD
OD value (450 nm) [11]: 0.08 OD
OD value (450 nm) [12]: 0.11 OD
OD value (450 nm) [13]: 0.1 OD
OD value (450 nm) [14]: 0.08 OD
OD value (450 nm) [15]: 0.07 OD
OD value (450 nm) [16]: 0.11 OD
OD value (450 nm) [17]: 0.12 OD
OD value (450 nm) [18]: 0.15 OD
OD value (450 nm) [19]: 0.14 OD
OD value (450 nm) [20]: 0.13 OD
OD value (450 nm) [21]: 0.11 OD
OD value (450 nm) [22]: 0.09 OD
OD value (450 nm) [23]: 0.07 OD
Substance: Negative control sera (mouse serum before immunization) (antibody)

Substance: non-muscle myosin heavy chain II-A (NMHC II-A) protein (receptor)
CPE caused by PRRSV on Marc-145 and PAM cells, blocker at 1 µg/well ('+' means CPE in 25% cells) (% cells with CPE) (PRRS virus (PRRSV)): 25
